The term Kd denotes a measure of binding affinity in units of concentration. As a reminder, the koff is the first-order rate constant of dissociation. Usually kon stands for the rate constant with which the complex forms.

Experiment [1] concerns the target T1, cynomolgus monkey Protein S (cynomolgus monkey).
T1 construct: also called cyno Protein S
Put plainly: BLI Octet; antibody on anti-human Fc probe; Protein S 7.81-500 nM; 4 mM CaCl2. How it is done: (§1) Binding characteristics of the Protein S antibodies were also further characterized using Octet. Using the Octet System (Sartorius), the binding of each antibody to both human and cynomolgus monkey (“cyno” in Table 10) Protein S was determined. The human Fc antibodies were immobilized onto anti-human Fc capture probes by placing the probes into 10 μg/ml antibody solution in 10 mg/ml bovine serum albumin, 20 mM Tris pH 7.0, 150 mM NaCl, and 4 mM calcium chloride. […] Next, the probes were placed into buffer and the dissociation rates were measured.
Background: In BLI a coated tip is dipped into the sample, and binding shifts an interference pattern.

Experiment [2] addresses T2, human Protein S (human, UniProt P07225 42-676).
T2 construct: also called ProS; ProS1
T2 sequence: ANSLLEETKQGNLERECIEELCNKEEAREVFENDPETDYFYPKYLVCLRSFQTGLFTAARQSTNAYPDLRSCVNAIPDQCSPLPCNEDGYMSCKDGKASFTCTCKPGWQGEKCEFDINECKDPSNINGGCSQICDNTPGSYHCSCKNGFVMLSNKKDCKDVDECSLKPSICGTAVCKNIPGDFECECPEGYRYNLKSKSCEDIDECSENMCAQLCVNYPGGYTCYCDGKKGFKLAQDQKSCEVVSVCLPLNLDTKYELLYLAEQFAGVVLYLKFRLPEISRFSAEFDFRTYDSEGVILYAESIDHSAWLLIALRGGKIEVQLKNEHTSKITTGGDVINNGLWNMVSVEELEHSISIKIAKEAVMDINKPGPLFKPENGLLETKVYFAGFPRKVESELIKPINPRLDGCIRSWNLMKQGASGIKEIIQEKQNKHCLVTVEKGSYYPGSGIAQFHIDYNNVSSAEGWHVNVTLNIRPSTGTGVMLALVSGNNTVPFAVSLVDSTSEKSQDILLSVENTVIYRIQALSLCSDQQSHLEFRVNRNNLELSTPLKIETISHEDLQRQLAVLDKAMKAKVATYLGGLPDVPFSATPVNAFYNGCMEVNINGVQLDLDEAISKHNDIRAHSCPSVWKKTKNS
The description is as above. The method, then:
as §1

In another experiment the target is T3, Protein S-C4BP complex (human, UniProt P04003 49-597; P20851 18-252).
T3 construct: C4BP preparation from Complement Technologies that contains Protein S precomplexed to human C4BP; also called ProS-C4BP Complex; C4BP-Protein S complex
T3 sequence 1: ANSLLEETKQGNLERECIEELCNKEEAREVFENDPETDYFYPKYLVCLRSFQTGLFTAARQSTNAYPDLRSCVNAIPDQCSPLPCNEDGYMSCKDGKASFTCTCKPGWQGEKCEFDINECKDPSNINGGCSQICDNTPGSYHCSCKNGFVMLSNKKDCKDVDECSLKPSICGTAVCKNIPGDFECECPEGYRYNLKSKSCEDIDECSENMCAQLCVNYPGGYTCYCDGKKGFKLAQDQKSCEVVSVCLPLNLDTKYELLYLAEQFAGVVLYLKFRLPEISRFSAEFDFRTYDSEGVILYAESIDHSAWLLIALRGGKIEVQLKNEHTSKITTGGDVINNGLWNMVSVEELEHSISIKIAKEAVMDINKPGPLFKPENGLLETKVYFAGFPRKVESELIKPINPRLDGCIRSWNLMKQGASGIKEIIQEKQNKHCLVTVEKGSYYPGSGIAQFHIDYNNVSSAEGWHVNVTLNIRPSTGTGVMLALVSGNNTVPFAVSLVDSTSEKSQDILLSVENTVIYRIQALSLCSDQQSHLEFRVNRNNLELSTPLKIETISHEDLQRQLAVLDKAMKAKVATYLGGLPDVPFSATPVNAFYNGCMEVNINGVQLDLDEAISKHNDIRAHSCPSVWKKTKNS
T3 sequence 2: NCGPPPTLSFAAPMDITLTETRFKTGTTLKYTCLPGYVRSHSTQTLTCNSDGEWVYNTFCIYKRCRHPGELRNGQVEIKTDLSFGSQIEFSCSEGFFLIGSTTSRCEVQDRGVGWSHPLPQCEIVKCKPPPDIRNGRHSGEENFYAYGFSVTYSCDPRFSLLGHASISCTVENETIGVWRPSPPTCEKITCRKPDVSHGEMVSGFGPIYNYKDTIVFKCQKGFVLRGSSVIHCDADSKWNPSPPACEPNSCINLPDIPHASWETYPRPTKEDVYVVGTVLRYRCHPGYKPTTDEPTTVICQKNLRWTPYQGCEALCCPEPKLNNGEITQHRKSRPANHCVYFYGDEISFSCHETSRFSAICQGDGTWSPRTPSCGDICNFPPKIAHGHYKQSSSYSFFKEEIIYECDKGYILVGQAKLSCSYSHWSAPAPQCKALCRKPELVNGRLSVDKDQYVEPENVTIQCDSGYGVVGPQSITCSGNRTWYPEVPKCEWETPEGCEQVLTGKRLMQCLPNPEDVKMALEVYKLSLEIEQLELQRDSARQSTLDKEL
T3 sequence 3: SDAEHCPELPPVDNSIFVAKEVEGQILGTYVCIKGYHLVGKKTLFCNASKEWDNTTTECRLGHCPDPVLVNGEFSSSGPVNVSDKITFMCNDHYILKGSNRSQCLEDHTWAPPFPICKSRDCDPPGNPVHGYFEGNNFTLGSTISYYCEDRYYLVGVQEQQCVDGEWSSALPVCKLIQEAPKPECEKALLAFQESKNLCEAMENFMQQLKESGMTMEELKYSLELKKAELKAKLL
Put plainly: BLI Octet; antibody on anti-human Fc probe. How it is done:
The Octet assay was used to determine the capability of the Protein S antibodies provided herein to bind to Protein S either alone, or when complexed to C4BP.
Using the Octet System (Sartorius), the binding of each antibody to both Protein S and Protein S in complex with C4BP was determined. It had previously been determined that the C4BP preparation from Complement Technologies contains Protein S precomplexed to human C4BP. Therefore, this preparation represented the Protein S-C4BP complex and plasma purified Protein S from Haematologic Technologies was used as the source of free Protein S. The human Fc antibodies were immobilized onto anti-human Fc capture probes by placing the probes into 10 μg/ml antibody solution in 10 mg/ml bovine serum albumin, 20 mM Tris pH 7.0, 150 mM NaCl, and 4 mM calcium chloride. Then the bound antibodies were placed into solutions containing either 75 μg/ml Protein S or 100 μg/ml C4BP (C4BP-Protein S complex).

Experiment [3] concerns the target T2, human Protein S. Briefly: SPR Biacore X100; antibody captured by anti-human IgG (Fc); Protein S 2-128 nM; 5 mM CaCl2; 1:1 fit. How it is done:
Binding characteristics of the Protein S antibodies were also determined. Binding interaction analysis was obtained by Surface Plasmon Resonance in a Biacore X100 instrument. The human anti-IgG (Fc) antibody was immobilized to the carboxymethylated dextran membrane on the sensor chip surface (CM5) via the free amine method for a contact time of 420 seconds. Human anti-IgG antibody at 25 μg/mL in 0.15 M NaCl was immobilized to 9,785 RU in 10 mM sodium acetate pH 5.0.
Dilution and running buffer were as follows: Hbs−EP+5 mM CaCl₂. Regeneration was obtained by 3 M MgCl₂. Binding constants (ka, kd, and KD) were determined using the Biacore X100 evaluation software, assuming a 1:1 interaction of Protein S and the tested monoclonal antibody under investigation.

B1: Antibody 37 (antibody, V domains shown)
VH: EVQLVESGGGLVKPGGSLRLSCAASGISFSNAWMSWVRQAPGKGLEWVGRIKANPDGGTTDYAAPVKGRFTISRDDSKNTLYLQMNSLKTEDTAVYYCTTELDILLWFTSFDYWGQGTLVTVSS
VL: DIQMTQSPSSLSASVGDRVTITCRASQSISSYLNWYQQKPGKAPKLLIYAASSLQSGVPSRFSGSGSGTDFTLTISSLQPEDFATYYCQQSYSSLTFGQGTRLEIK
notes: Same variable regions as Antibody 38
B1: in experiment [1], the Kd was 0.672 nM, the koff worked out at 0.000119 s⁻¹ and the kon was determined as 177000 M⁻¹ s⁻¹. In the experiment with human Protein S [2], this molecule registered a Kd of 0.382 nM, a koff of 8.32e-05 s⁻¹ and a kon of 218000 M⁻¹ s⁻¹. For the same molecule, the binding result with Protein S-C4BP complex is given as “no binding (tested: 100 µg/ml C4BP (C4BP-Protein S complex))”.

B2: Antibody 41 (antibody, V domains shown)
VH: QVQLVQSGSEVKKPGASVKVSCKASGYTFTNYYIHWVRQAPGQGLEWMGIITPSGGTTSYAQKFQGRVTMTRDTSTNTVYMGLSSLRSEDTAMYYCARAGVQLDRRGWFDPWGQGTLVTVSS
VL: SYELTQPPSVSVSPGQTASITCSGDKLGDKYVFWYQQKPGQSPVLVIYQDSKRPSGIPERFSGSNSGNTATLTISGTQTMDEADYYCQAWDSSTVGFGGGTKLAVL
notes: Same variable regions as Antibody 42
With B2, in experiment [1], binding was put at a Kd of 19.5 nM, the koff was found to be 0.00188 s⁻¹ and the kon is 96400 M⁻¹ s⁻¹. In the experiment with human Protein S [2], binding was put at a Kd of 13.8 nM, the koff was 0.0011 s⁻¹ and the kon was determined as 80000 M⁻¹ s⁻¹. The binding result with Protein S-C4BP complex was “no binding (tested: 100 µg/ml C4BP (C4BP-Protein S complex))”.

B3: Antibody 29 (antibody, V domains shown)
VH: QLQLQESGPGLVKPSETLSLTCTVSGGSITNSNYYWGWIRQPPGKGLEWIGSVYYSGTTYYNPSLKSRVTISVDPSKNQFSLKLSSVTAADTAVYYCVRESESYYYYGSDVWGQGTTVTVSS
VL: DIQMTQSPSSLSASVGDRVTITCRASQGINNYLAWFQQKPGKAPKSLIYAASSLQSGVPSKFSGSGSGTDFTLTISSLQPEDFATYYCQQYNSYPRTFGQGTKVEIK
notes: Same variable regions as Antibody 35
In experiment [1], B3 showed a Kd of 20 nM, a koff of 0.00177 s⁻¹ and a kon of 88200 M⁻¹ s⁻¹. In the experiment with human Protein S [2], this molecule returned a Kd of 21.1 nM, a koff of 0.00173 s⁻¹ and a kon of 81900 M⁻¹ s⁻¹. For the same molecule, the binding result with Protein S-C4BP complex was “no binding (tested: 100 µg/ml C4BP (C4BP-Protein S complex))”.

B4: Antibody 30 (antibody, V domains shown)
VH: EVQLVESGGGLVKPGGSLRLSCAASGFTFSSYNMNWVRQAPGRGLDWVSSISSSSSYIYYADSVKGRFTISRDNAKNSLYLQMNTLRAEDTAVYYCARDEEWELLTGFDYWGQGTLVTVSS
VL: DIQMTQSPSSLSASVGDRVTITCRASQGINNYLAWFQQKPGKAPKSLIYAASNLQSGVPLKFSGSGSGTDFTLTISSLQPEDFATYYCQQYNSYPITFGQGTRLEIK
notes: Same variable regions as Antibody 36
In experiment [1], B4 registered a Kd of 20.9 nM, a koff of 0.00073 s⁻¹ and a kon of 35000 M⁻¹ s⁻¹. Moreover, in the experiment with human Protein S [2], the affinity, expressed as Kd, was 11.5 nM; the koff stood at 0.000279 s⁻¹; the kon came to 24200 M⁻¹ s⁻¹. Also, the binding result with Protein S-C4BP complex is listed as “no binding (tested: 100 µg/ml C4BP (C4BP-Protein S complex))”.

B5: Antibody 25 (antibody, V domains shown)
VH: QVQLQESGPGLVKPSETLSLTCTVSGGSISGNYWSWIRQPPGKGLEWIGYIYYSGSTNYNPSLKSRVTISVDTSKNQFSLKLSSVTAADTAVYYCARDLDYFTWGAYSDWYFDLWGRGTLVTVSS
VL: DIQMTQSPSSLSASVGDRVTITCRASQSISTFLNWYQQKPGKAPKLLIYATSSLRSGVPSRFSGSGSGTDFTLTISSLQPEDFAIYYCQQSYSTPRTFGQGTQVEIK
notes: Same variable regions as Antibody 31
Turning to B5, in experiment [1], the Kd is < 0.001 nM, the koff was < 1e-07 s⁻¹ and the kon is 124000 M⁻¹ s⁻¹. Further, in the experiment with human Protein S [2], the Kd was < 0.001 nM, the koff is < 1e-07 s⁻¹ and the kon is 143000 M⁻¹ s⁻¹. Further, in the experiment with Protein S-C4BP complex, the binding result is “no binding (tested: 100 µg/ml C4BP (C4BP-Protein S complex))”.

B6: Antibody 11 (antibody, V domains shown)
VH: QVQLVQSGAEVKKPGASVKVSCKSSGHTFTGYYMHWVRQAPGQGLEWMGWINPNSGDTNYAQKFQGRVTMTRDTSISTAYMEMSRLRSDDTAVYYCARDSQILWFGELGYWGQGTLVTVSS
VL: QAVVTQESALTTSPGETVTLTCRSSTGAVTASNYANWVQEKPDHLFTGLIGSTNNRAPGVPARFSGSLIGDKAALTITGAQTEDEAIYFCALWYSDHFVFGGGTKLTVL
notes: Same variable regions as Antibody 23
In the case of B6, in experiment [1], the Kd is < 0.001 nM, the koff is < 1e-07 s⁻¹ and the kon is 82100 M⁻¹ s⁻¹. In the experiment with human Protein S [2], this molecule came in with a Kd of 0.399 nM, a koff of 3.4e-05 s⁻¹ and a kon of 85200 M⁻¹ s⁻¹. Also, in the experiment with Protein S-C4BP complex, the binding result was “no binding (tested: 100 µg/ml C4BP (C4BP-Protein S complex))”. In addition, in the experiment with human Protein S [3], the Kd amounted to 9.6 nM, the koff turned out to be 0.00113 s⁻¹ and the kon worked out at 116000 M⁻¹ s⁻¹.

B7: Antibody 39 (antibody, V domains shown)
VH: EVQLVESGGGLVQPGGSLRLSCAASGFTFSSYSMNWVRQAPGKGLEWVAYISSSTRTIFYADSVKGRFTISRDNAKNSLYLQMNSLRDEDTAFYYCARERSAFDYWGQGTLVTVSS
VL: SYVLTQPPSVSVAPGQTARITCGGDNIGGKSVHWYQQKPGQAPVMVVYDDSDRPSGIPERFAGSNSGNTATLAISRVEAGDEADYYCQVWEITSDHPAFGGGTRLTVL
notes: Same variable regions as Antibody 40
In experiment [1], B7 gave a Kd of 0.419 nM, a koff of 8.02e-05 s⁻¹ and a kon of 191000 M⁻¹ s⁻¹. For the same molecule, in the experiment with human Protein S [2], the Kd is 0.25 nM, the koff worked out at 5.84e-05 s⁻¹ and the kon came out at 234000 M⁻¹ s⁻¹. Besides, the binding result in the experiment with Protein S-C4BP complex is “no binding (tested: 100 µg/ml C4BP (C4BP-Protein S complex))”.

Values taken from patent US20230083243A1 (VEGA THERAPEUTICS, published 2023).
